Measurements from the PETadex activity labels.
Numbering of substitutions follows the chain as printed.

Columns and labels:
PET [1] = test: Proxy for plastic degradation [Released monomer concentration (HPLC/LC-MS) (Total aromatic products)] (nmol/(min*cm²)); details: pH 9
PBSA = test: Proxy for plastic degradation [kcat/Km (catalytic efficiency)] (mM⁻¹s⁻¹); details: pH 8.2
PET [2] = test: Proxy for plastic degradation [Released monomer concentration (HPLC/LC-MS) (TPA+MHET)]; details: pH 9
PET [3] = test: Proxy for plastic degradation [Released monomer concentration (HPLC/LC-MS) (TA)]; details: pH 7
PET [4] = test: Proxy for plastic degradation [Released monomer concentration (HPLC/LC-MS) (BA)]; details: pH 7
PET [5] = test: Proxy for plastic degradation [Released monomer concentration (HPLC/LC-MS) (TPA+EG)]; details: pH 8, 70 °C, part of the chain shown
PET [6] = test: Proxy for plastic degradation [Crystallinity (DSC)] (% crystallinity loss); details: pH 9.4

B1: unnamed (protein)
chain: ANPYERGPNPTDALLEARSGPFSVSEENVSRLSASGFGGGTIYYPRENNTYGAVAISPGYTGTEASIAWLGERIASHGFVVITIDTITTLDQPDSRAEQLNAALNHMINRASSTVRSRIDSSRLAVMGHSMGGGGSLRLASQRPDLKAAIPLTPWHLNKNWSSVTVPTLIIGADLDTIAPVATHAKPFYNSLPSSISKAYLELDGATHVAPNIPNKIIGKYSVAWLKRFVDNDTRYTQFLCPGPRDGLFGEVEEYRSTCPFYPNSSSVDKLAAALE
- Proxy for plastic degradation (PET [1]): 6.5

B2: unnamed (protein)
chain: B1 chain with V209W
- Proxy for plastic degradation (PET [1]): 3

B3: unnamed (protein)
chain: B1 chain with V209L
- Proxy for plastic degradation (PET [1]): 0.5

B4: unnamed (protein)
chain: MLAVWDDTLAHPVRGRDRELATLTGLLDNTSGRRGTGMVVVGAPGTGKTTLLNALVEHAEGFQVLWAEGSAAESDVRFAGVEQLLRPLESLVSLLPDDRGRALRPVWGLPADDEGQVGSLAVPAAVSALLGLAARRQPVLCCVDSAHLLDSASLSALAFAARRAHHAGVVFVFAVDCTADTEVDTETSVWGELPRLRLGRLDDEAAHALLRDRLGASLPHDLADSLLDVGHGHPLALVELAESLTPEHLCGRAAPPSSPPPEGRLCRTLGHRLSALSEGAREVVALAGISEGLDEQLTCRVLPHHRSTLAEAVRSGLVVLDGDTVRTAADTVPSALLAALTPQDIVQAHHRMAEAAEAVGDRDRAVWHRAAIAMAPDPALVADLDDIAERARAAAAHATAAAASERAAALTSDTKERARRLVAAATDHWASGRPQRARTALRLAAPLSDSVLGARVSRLAGEIELRRGDPSVAATKLISTARQLASTHRTLAASALMLAGEASFVAGDNARYCLTAKDAALLCGPEEWPATRVVREHFTAMSATFRGEHSAAAAPLRSLVELGETTPDPTAKTLASQAAFTLGDAERSRDLALQAVVCARARGDESGVPWALVYAALSALLSGQLSAASTTALEGLQVARSLGQSNSAVDHVTVLAMLAALQGDEETALQRLQAANTELAERGLGRPSALATWAAACVDLAHDRPAEAFDRFRRMTVGRSRHCVPLRVMAVPHFVEAAVRCGEKEVARRSLVTFEHWANTTGGTARVALAHRCHALLAEQDGEAQERFTEAVRLHREADAPYDLAVTQLLYASHLRRSRRPKQARELLREAVQLFDDLGATHWVERASQELRACGHPGRGKPHLSRGLSPQQERIAQLVADGATNKEIATQLFISHRTVDHHLRNIFAKLDVRSRVQLAALFR
- Proxy for plastic degradation (PBSA): 375

B5: unnamed (protein)
chain: MNPFEKGPDPTKTMLEASTGPFTYTTTTVSSTTASGYRQGTIYHPTNVTGPFAAVAVVPGYLASQSSINWWGPRLASHGFVVITIDTNSTSDQPPSRATQLMAALNQLKTFSNTSSHPIYRKVDPNRLGVMGWSMGGGGTLIAARDNPTLKAAIPFAPWNSSTNFSTVSVPTLIIACESDSTAPVNSHASPFYNSLPSTTKKAYLEMNNGSHSCANSGNSNAGLIGKYGVSWMKRFMDNDTRFSPYLCGAPHQADLSLTAIDEYRENCPY
- Proxy for plastic degradation (PET [2]; 30 °C): 795 µM
- Proxy for plastic degradation (PET [2]; 40 °C): 790 µM

B6: unnamed (protein)
chain: MTHQIVTTQYGKVKGTTENGVHKWKGIPYAKPPVGQWRFKAPEPPEVWEDVLDATAYGPICPQPSDLLSLSYTELPRQSEDCLYVNVFAPDTPSQNLPVMVWIHGGAFYLGAGSEPLYDGSKLAAQGEVIVVTLNYRLGPFGFLHLSSFNEAYSDNLGLLDQAAALKWVRENISAFGGDPDNVTVFGESAGGMSIAALLAMPAAKGLFQKAIMESGASRTMTKEQAASTSAAFLQVLGINEGQLDKLHTVSAEDSLKAADQLRIAEKENIFQLFFQPALDPKTLPEEPEKAIAEGAASGIPLLIGTTRDEGYLFFTPDSDVHSQETLDAALEYLLGKPLAEKAADLYPRSLESQIHMMTDLLFWRPAVAYASAQSHYAPVWMYRFDWHPKKPPYNKAFHALELPFVFGNLDGLERMAKAEITDEVKQLSHTIQSAWITFAKTGNPSTEAVNWPAYHEETRETLILDSEITIENDPESEKRQKLFPSKGE
- Proxy for plastic degradation (PET [3]; 1 h): 0 µM
- Proxy for plastic degradation (PET [3]; 2 h): 100 µM
- Proxy for plastic degradation (PET [4]; 1 h): 10 mM
- Proxy for plastic degradation (PET [4]; 2 h): 1250 mM

B7: unnamed (protein)
chain: QLGAIENGLESGSANACPDAILIFARGSTEPGNMGITVGPALANGLESHIRNIWIQGVGGPYDAALATNFLPRGTSQANIDEGKRLFALANQKCPNTPVVAGGYSQGAALIAAAVSELSGAVKEQVKGVALFGYTQNLQNRGGIPNYPRERTKVFCNVGDAVCTGTLIITPAHLSYTIEARGEAARFLRDRIRA
- Proxy for plastic degradation (PET [5]; 0 h): 0%
- Proxy for plastic degradation (PET [5]; 24 h): 38%
- Proxy for plastic degradation (PET [5]; 48 h): 50%
- Proxy for plastic degradation (PET [5]; 72 h): 70%
- Proxy for plastic degradation (PET [5]; 96 h): 90%

B8: unnamed (protein)
chain: MNFPRASRLMQAAVLGGLMAVSAAATAQTNPYARGPNPTAASLEASAGPFTVRSFTVSRPSGYGAGTVYYPTNAGGTVGAIAIVPGYTARQSSIKWWGPRLASHGFVVITIDTNSTLDQPSSRSSQQMAALRQVASLNGTSSSPIYGKVDTARMGVMGWSMGGGGSLISAANNPSLKAAAPQAPWDSSTNFSSVTVPTLIFACENDSVAPVASSALPIYDSMSRNAKQFLEINGGSHYCANSGNSNQALIGKKGVAWMKRFMDNDTRYSTFACENPNSTRVSDFRTANCSLEHHHHHH
- Proxy for plastic degradation (PET [6]): 3.2

B9: unnamed (protein)
chain: B8 chain with A212N, Y238S
- Proxy for plastic degradation (PET [6]): 0.6

B10: unnamed (protein)
chain: B8 chain with V208I, A212N, Y238S
- Proxy for plastic degradation (PET [6]): 1.5

B11: unnamed (protein)
chain: B8 chain with Y238S
- Proxy for plastic degradation (PET [6]): 2
